Laboratory results: the Immune Epitope Database (IEDB)
pKd: −log10 of the molar value.

Assays:
Assay in all cases: IEDB peptide-MHC binding, purified MHC/direct/fluorescence; filed as Kd, often an IC50 or EC50 that approximates it; ≥ and ≤ were set here for values at or beyond the usual limits of such assays
HLA-B*57:01 = biological target: HLA-B*57:01
HLA-A*02:10 = details: source organism: Rickettsia typhi
HLA-A*29:02 = details: source organism: Rickettsia typhi
HLA-A*02:50 = details: source organism: Rickettsia typhi
HLA-A*03:01 = details: source organism: Rickettsia prowazekii
HLA-A*02:11 = details: source organism: Rickettsia typhi
HLA-A*69:01 = biological target: HLA-A*69:01
HLA-A*02:12 = details: source organism: Rickettsia typhi
HLA-B*44:02 = biological target: HLA-B*44:02
HLA-A*24:03 = details: source organism: Rickettsia typhi
HLA-A*80:01 = details: source organism: Rickettsia typhi
HLA-A*30:01 = details: source organism: Rickettsia typhi
HLA-A*23:01 = details: source organism: Rickettsia typhi
HLA-A*02:19 = details: source organism: Rickettsia typhi
HLA-B*15:01 = details: source organism: Rickettsia prowazekii
HLA-B*51:01 = details: source organism: Rickettsia typhi
HLA-A*11:01 = details: source organism: Marburg virus - Musoke, Kenya, 1980
HLA-B*27:05 = details: source organism: Marburg virus - Musoke, Kenya, 1980
HLA-B*18:01 = details: source organism: Marburg virus - Musoke, Kenya, 1980
HLA-A*68:02 = details: source organism: Marburg virus - Musoke, Kenya, 1980
HLA-A*01:01 = details: source organism: Marburg virus - Musoke, Kenya, 1980
HLA-A*26:02 = details: source organism: Ravn virus - Ravn, Kenya, 1987
HLA-B*08:03 = details: source organism: Ravn virus - Ravn, Kenya, 1987
HLA-B*58:01 = details: source organism: Marburg virus - Musoke, Kenya, 1980
HLA-B*48:01 = details: source organism: Marburg virus - Musoke, Kenya, 1980
HLA-B*15:17 = details: source organism: Marburg virus - Musoke, Kenya, 1980
HLA-B*39:01 = details: source organism: Ravn virus - Ravn, Kenya, 1987
HLA-B*40:01 = details: source organism: Marburg virus - Musoke, Kenya, 1980
HLA-A*02:01 = details: source organism: Marburg virus - Musoke, Kenya, 1980
HLA-A*31:01 = details: source organism: Marburg virus - Musoke, Kenya, 1980
HLA-B*07:02 = details: source organism: Marburg virus - Musoke, Kenya, 1980
HLA-A*26:03 = details: source organism: Ravn virus - Ravn, Kenya, 1987
HLA-B*08:02 = details: source organism: Ravn virus - Ravn, Kenya, 1987
[1] = source organism: Rickettsia typhi
[2] = source organism: Marburg virus - Musoke, Kenya, 1980

**Q.** With ELYPTVNTY as the sequence, how does the pKd (HLA-B*57:01; [1]) read?
**A.** ≤ 4.70

**Q.** And the pKd (HLA-A*02:10)?
**A.** ≤ 4.70

**Q.** And the pKd (HLA-A*29:02)?
**A.** 7.26

**Q.** And the pKd (HLA-A*02:50)?
**A.** ≤ 4.70

**Q.** What about the pKd (HLA-A*03:01) of the same sequence?
**A.** 5.69

**Q.** What about the pKd (HLA-A*02:11) of the same sequence?
**A.** ≤ 4.70

**Q.** What about the pKd (HLA-A*69:01; source organism: Rickettsia prowazekii) of the same sequence?
**A.** 4.84

**Q.** And the pKd (HLA-A*02:12)?
**A.** ≤ 4.70

**Q.** What about the pKd (HLA-B*44:02; [1]) of the same sequence?
**A.** ≤ 4.70

**Q.** And the pKd (HLA-A*24:03)?
**A.** ≤ 4.70

**Q.** And the pKd (HLA-A*80:01)?
**A.** 5.35

**Q.** What about the pKd (HLA-A*30:01) of the same sequence?
**A.** ≤ 4.70

**Q.** What about the pKd (HLA-A*23:01) of the same sequence?
**A.** ≤ 4.70

**Q.** What about the pKd (HLA-A*02:19) of the same sequence?
**A.** ≤ 4.70

**Q.** And the pKd (HLA-B*15:01)?
**A.** 6.64

**Q.** What about the pKd (HLA-B*51:01) of the same sequence?
**A.** ≤ 4.70

**Q.** With AEALLADGL as the sequence, how does the pKd (HLA-A*11:01) read?
**A.** ≤ 4.70

**Q.** And the pKd (HLA-B*27:05)?
**A.** ≤ 4.70

**Q.** What about the pKd (HLA-B*57:01; [2]) of the same sequence?
**A.** ≤ 4.70

**Q.** What about the pKd (HLA-B*18:01) of the same sequence?
**A.** 5.76

**Q.** And the pKd (HLA-A*68:02)?
**A.** ≤ 4.70

**Q.** What about the pKd (HLA-A*01:01) of the same sequence?
**A.** ≤ 4.70

**Q.** And the pKd (HLA-A*26:02)?
**A.** ≤ 4.70

**Q.** What about the pKd (HLA-B*08:03) of the same sequence?
**A.** ≤ 4.70

**Q.** And the pKd (HLA-A*69:01; [2])?
**A.** ≤ 4.70

**Q.** And the pKd (HLA-B*58:01)?
**A.** ≤ 4.70

**Q.** What about the pKd (HLA-B*48:01) of the same sequence?
**A.** ≤ 4.70

**Q.** What about the pKd (HLA-B*15:17) of the same sequence?
**A.** ≤ 4.70

**Q.** And the pKd (HLA-B*39:01)?
**A.** ≤ 4.70

**Q.** And the pKd (HLA-B*40:01)?
**A.** 7.95

**Q.** And the pKd (HLA-B*44:02; [2])?
**A.** ≤ 5.00

**Q.** And the pKd (HLA-A*02:01)?
**A.** ≤ 4.70

**Q.** And the pKd (HLA-A*31:01)?
**A.** ≤ 4.70

**Q.** What about the pKd (HLA-B*07:02) of the same sequence?
**A.** ≤ 4.70

**Q.** What about the pKd (HLA-A*26:03) of the same sequence?
**A.** ≤ 4.70

**Q.** And the pKd (HLA-B*08:02)?
**A.** ≤ 4.70
